In US20240173377A1 (published 2024):

Assays:
Assay in all cases: HLA class II competition binding assay
HLA DRB1*0701 = HLA DRB1*0701 (human)
HLA DRB1*1501 = HLA DRB1*1501 (human)
HLA DRB1*0101 = HLA DRB1*0101 (human)
HLA DRB1*1301 = HLA DRB1*1301 (human)
HLA DRB1*0401 = HLA DRB1*0401 (human)
HLA DRB1*1101 = HLA DRB1*1101 (human)
HLA DRB1*0301 = HLA DRB1*0301 (human)

EEQYNSTYTVVSVLTVLHQD [SEQ ID NO 114]
IC50 (HLA DRB1*0701): 115 nM | IC50 (HLA DRB1*1501): 2110 nM | IC50 (HLA DRB1*0101): 19 nM | IC50 (HLA DRB1*1301): 1860 nM | IC50 (HLA DRB1*0401): 1210 nM | IC50 (HLA DRB1*1101): 84 nM | IC50 (HLA DRB1*0301): 1570 nM
